Numbering of substitutions follows the chain as printed. Read-outs that look alike come from different tables or passages of the source.
Key:
[1] = target: T1, RL9 SIV (peptide pulsed K562-HLA-E cells) (human); assay: flow cytometry on peptide-pulsed K562-HLA-E cells; AF647 anti-mouse Ig(H+L)
T1 construct: cell surface

[2] = target: T2, RL9HIV (peptide pulsed K562-HLA-E cells) (human); assay: as above
T2 construct: cell surface

[3] = target: T3, Mtb44 (peptide pulsed K562-HLA-E cells) (human); assay: as above
T3 construct: cell surface

[4] = target: T4, soluble HLA-E-VL9 complex (HLA-E*01:03, β2M, VL9 peptide) (human)
[5] = target: T4, soluble HLA-E-VL9 complex (HLA-E*01:03, …); remark: listed apart in the source
[6] = target: T4, soluble HLA-E-VL9 complex (HLA-E*01:03, …); remark: listed apart in the source
[7] = target: HLA-E-RL9HIV with a mutation at P1 (arginine to valine) on transfected 293T cells (human, UniProt P61769 21-119; P13747 22-358); assay: flow cytometry on transfected HEK 293T cells
[8] = target: T4, soluble HLA-E-VL9 complex (HLA-E*01:03, …); remark: listed apart in the source
[9] = target: HLA-E-RL9SIV single chain trimer on transfected 293T cells (human, UniProt P61769 21-119; P13747 22-358); assay: flow cytometry, SCT-transfected 293T cells, MFI bar chart [panel E]

B1: 3H4 IgM (murine HLA-E-VL9-specific IgM monoclonal antibody 3H4) (antibody, V domains shown)
VH: EVQLQESGPELVKPGASVKIPCKASGYTFTDYNMDWVKQSHGKSLEWIGDINPNNGGTIYNQKFKGKATLTVDKSSSTAYMELRSLTSEDTAVYYCARPDYYGSSYGWYFDVWGTGTTVTVSS
VL: DIVITQSPSSMYASLGERVTITCKASQDINSYLSWFQQKPGKSPKTLIYRANRLVDGVPSRFSGSGSGQDYSLTISSLEYEDMGIYYCLQYDEFPLTFGAGTKLELK
notes: also called mAb 3H4; IgM 3H4
- MFI [1]: 1580
- MFI [2]: 1520
- MFI [3]: 1180

B2: 3H4 Gv3 (antibody, V domains shown)
VH: B1 VH with Y101S, Y102A, G103Q, S104Y
VL: B1 VL
- Kd [4]: 223 nM

B3: 3H4 Gv7 (antibody, V domains shown)
VH: B1 VH with Y101G, Y102A, G103R, S104W
VL: B1 VL
- Kd [5]: 735 nM
- koff [5]: 0.0345 s⁻¹
- kon [5]: 47000 M⁻¹ s⁻¹
- Kd [6]: 994 nM
- koff [6]: 0.0349 s⁻¹
- kon [6]: 35200 M⁻¹ s⁻¹

B4: 3H4G_v31 (antibody, V domains shown)
VH: B1 VH with Y101S, Y102A, G103Q, S104Y, S105R, Y106W, G107N
VL: B1 VL
notes: also called 3H4_Gv31_G1.4A
- binding result [7]: binds
- Kd [8]: 62.4 nM
- koff [8]: 0.0112 s⁻¹
- kon [8]: 180000 M⁻¹ s⁻¹

B5: CA172 (antibody, V domains shown)
VH: QVQLVESGGGLVKPGGSLRLSCAASGFTFSDYYMSWIRQAPGKGLEWVSYISSSSSYTNYADSVKGRFTISRDNAKNSLYLQMNSLRAEDTAVYYCARALRYFDWYDYWGQGTLVTVSS
VL: EIVLTQSPDFQSVTPKGKVTITCRASQSIGSSLHWYQQKPDQSPKLLIKYASQSFSGVPSRFSGSGSGTEFTLTISSLQPEDFATYYCQQLNSYSPITFGQGTRLEIK
- binding result [9]: no binding (tested: 2 µg/ml)

Source: US20250019443A1 (DUKE UNIVERSITY, published 2025)
